Test results taken from the supplement of paper PMC10126150.
± gives the standard deviation of the averaged measurements.
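Note: ATP exposure 15 min at 22 °C before imaging.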

What follows are sequences tested on ATP (assay: switch fluorescence ratio, 500 uM ATP over buffer (Cy3 cluster intensity, sum of 5 cycles each) (fold (ratio)); higher = stronger signal-on switching upon ATP binding; sequences stand for … in TCGTCGGCAGCGTCAGATGTGTATAAGAGACAGTTTTTTTTTTTTTTTTTTTTTTTTT…TC). Conditions: aptamer strand: ATP DNA aptamer (quencher-CACCTGGGGGAGTATTGCGGAGGAAGG + anchor), 100 nM annealed; ATP concentration: 500 uM.
In short: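 Switching-strand clusters labelled with Cy3 on a modified Illumina MiSeq flow-cell were annealed to 100 nM quencher-labelled ATP aptamer, imaged in selection buffer, and re-imaged after 15 min with 500 uM ATP at 22 °C. This was done over five cycles with NaOH stripping and re-annealing in between. The fluorescence ratio is summed target-cycle over summed buffer-cycle Cy3 intensity per cluster, averaged per switch-domain sequence, excluding clusters outside 100-1000 RFU.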
GGGGCTTAAA was tested, and the switch fluorescence ratio was 1.04 ± 0.047.
GGGCCACCGA gave a switch fluorescence ratio of 0.975 ± 0.0041.
Work on TTGGAAAAGG yielded a switch fluorescence ratio of 1.02 ± 0.029.
Work on GCGTCTGGGG yielded a switch fluorescence ratio of 1.019 ± 0.0046.
AGTAAAATAG showed a switch fluorescence ratio of 0.968 ± 0.017.
In the case of TCCGCGTACG, the switch fluorescence ratio is reported as 2.75 ± 0.056.
Sequence AACGTTAGGT has a switch fluorescence ratio of 0.9704 ± 0.0022.
With GGGCGAAAAA the switch fluorescence ratio was 0.987 ± 0.054.
Work on AAGGTTTCC yielded a switch fluorescence ratio of 1 ± 0.049.
CGACCGGGGA was tested, and the switch fluorescence ratio was 1.04 ± 0.011.
CAAAACGGGG was tested, and the switch fluorescence ratio was 1.15 ± 0.18.
Sequence ATAGAGGTGG has a switch fluorescence ratio of 0.9979 ± 0.0022.
Work on TTAACGGGGG yielded a switch fluorescence ratio of 0.984 ± 0.043.
Sequence ATTTATGTGT has a switch fluorescence ratio of 1.01 ± 0.057.
In the case of AGGGCATTAT, the switch fluorescence ratio is reported as 1.04 ± 0.047.
With CGGGAGAATA the switch fluorescence ratio was 0.989 ± 0.013.
With TTTGTTTGTT the switch fluorescence ratio was 0.986 ± 0.02.
Work on GGTCGGGGAA yielded a switch fluorescence ratio of 1.01 ± 0.042.
CGGATTAAAC gave a switch fluorescence ratio of 1.04 ± 0.022.
AAGGAGTCGG was tested, and the switch fluorescence ratio was 0.987 ± 0.044.
TATTACAAGT showed a switch fluorescence ratio of 1.01 ± 0.015.
In the case of ACACGGGGGT, the switch fluorescence ratio is reported as 1.01 ± 0.018.
GTGCAATGGC was tested, and the switch fluorescence ratio was 1.57 ± 0.18.
Work on CCGCGGGATT yielded a switch fluorescence ratio of 1.28 ± 0.32.
With CCAGTTTGGA the switch fluorescence ratio was 0.998 ± 0.017.
In the case of GGTTCTCAGT, the switch fluorescence ratio is reported as 0.988 ± 0.0097.
For GAGGTAGGGG, the switch fluorescence ratio was 0.968 ± 0.021.
CTGATATTGG was tested, and the switch fluorescence ratio was 0.994 ± 0.015.
Work on TCGTTTGTTT yielded a switch fluorescence ratio of 0.982 ± 0.04.
With AAGTCAAGTA the switch fluorescence ratio was 0.9581 ± 0.0054.
Sequence CACTTCTGGC has a switch fluorescence ratio of 1.03 ± 0.011.
GCGCGCTGGG gave a switch fluorescence ratio of 0.9646 ± 0.0044.
With ACACAGAGTT the switch fluorescence ratio was 1.03 ± 0.014.
ACGATGGCCT was tested, and the switch fluorescence ratio was 1 ± 0.014.
TATCAGGGCT gave a switch fluorescence ratio of 0.999 ± 0.057.
Sequence GAAATTATCG has a switch fluorescence ratio of 0.9988 ± 0.0034.
Sequence AACATGTCTC has a switch fluorescence ratio of 1.01 ± 0.043.
Sequence TTCGGGGTGT has a switch fluorescence ratio of 1.01 ± 0.044.
TTAAAGTGCT showed a switch fluorescence ratio of 0.984 ± 0.021.
With TTGTATTGCC the switch fluorescence ratio was 1.02 ± 0.018.
TATTCAGGCA showed a switch fluorescence ratio of 1.01 ± 0.041.
In the case of ATAAGCGATT, the switch fluorescence ratio is reported as 1.03 ± 0.024.
AGAAGTGCGG gave a switch fluorescence ratio of 0.984 ± 0.032.
CCGGGTGACA gave a switch fluorescence ratio of 1.25 ± 0.048.
Work on AGGGGCTCGT yielded a switch fluorescence ratio of 1 ± 0.012.
GCTGTTTTCA was tested, and the switch fluorescence ratio was 0.984 ± 0.048.
TCCAGGGTGC gave a switch fluorescence ratio of 1.93 ± 0.37.
In the case of CGACTATTTT, the switch fluorescence ratio is reported as 1.01 ± 0.045.
For ATATTGTAGT, the switch fluorescence ratio was 0.9969 ± 0.0089.
Work on TGTGGTGGGA yielded a switch fluorescence ratio of 0.98 ± 0.02.
AGATGCTTTA gave a switch fluorescence ratio of 0.9908 ± 0.0027.
GGGGTGTAAG was tested, and the switch fluorescence ratio was 0.992 ± 0.02.
With CGGCGGTCGG the switch fluorescence ratio was 0.9808 ± 0.0076.
In the case of TCGTTTAGGA, the switch fluorescence ratio is reported as 0.974 ± 0.031.
TTATGCACGT showed a switch fluorescence ratio of 1.04 ± 0.049.
Work on AAGTGGGTCG yielded a switch fluorescence ratio of 0.9408 ± 0.0023.
TCATCGGGGA showed a switch fluorescence ratio of 1.01 ± 0.028.
Sequence GGATAATAGT has a switch fluorescence ratio of 0.9916 ± 0.0082.
GTTTGGTTTT gave a switch fluorescence ratio of 0.99 ± 0.014.
Work on GGGTTATAGT yielded a switch fluorescence ratio of 1.01 ± 0.017.
ATGTACGGGG showed a switch fluorescence ratio of 1.04 ± 0.028.
For TGGTAGGAGG, the switch fluorescence ratio was 1.002 ± 0.0056.
With CCTAGTTCGG the switch fluorescence ratio was 0.997 ± 0.027.
Sequence TATATATAAA has a switch fluorescence ratio of 1.09 ± 0.087.
For ACCTATTTTT, the switch fluorescence ratio was 1.01 ± 0.017.
GGGAATTAGG was tested, and the switch fluorescence ratio was 1 ± 0.021.
With GACATGTTTT the switch fluorescence ratio was 1.039 ± 0.0097.
TTCGGAGTTT showed a switch fluorescence ratio of 1.01 ± 0.12.
For TAGAAGTGGT, the switch fluorescence ratio was 0.9963 ± 0.0084.
CGATTGAGCA gave a switch fluorescence ratio of 0.994 ± 0.031.
For GGTTTCTTGC, the switch fluorescence ratio was 1.02 ± 0.011.
TAAGCAATGT gave a switch fluorescence ratio of 2.69 ± 1.1.
GCGAGTGTAC was tested, and the switch fluorescence ratio was 0.983 ± 0.094.
ACGATTTTTT gave a switch fluorescence ratio of 0.993 ± 0.013.
Sequence GTAGGGGTTT has a switch fluorescence ratio of 0.998 ± 0.034.
With TTTCAATTGT the switch fluorescence ratio was 1.02 ± 0.047.
